Data reported in the nanobody polyreactivity screen of Harvey et al. (2022).

Test: yeast display, Sf9 membrane polyspecificity reagent, FACS + sequencing; frameworks hold sequencing errors
Summary of the method: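 After 36–48 hours of galactose induction, yeast (Saccharomyces cerevisiae BJ5465) displaying a synthetic nanobody library were stained at 4 °C for 1 hour with 10% biotinylated, detergent-solubilized Sf9 membrane reagent. Streptavidin microbeads enriched the stained cells before FACS sorting into low and high (top ~1%) gates on anti-HA and streptavidin fluorescence. Each clone's polyreactivity label reflects its gate of origin.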

| Sequence | polyreactivity (PSR sort gate) |
| --- | --- |
| QVQLVESGGGLVQAGGSLRLSCAASGSTFGKNAMAWYRQAPGKERELVAAITSSGGRTYYADSVKGRFTISRDNAKNTVYLQMNSLKPEDTAVYYCNSVTRRRSLGPWPVEYDYWGQGTQVTVSS | high polyreactivity |
| QVQLVESGGGLVQAGGSLRLSCAASGSTFGKNAMGWYRQAPGKERELVAAITSSGGRTYYADSVKGRFTISRDNAKNTVYLQMNSLKPEDTAVYYCNAVTRRRSLGPWPVEYDYWGQGTQVTVSS | high polyreactivity |
| QVQLVESGGGLVQAGGSLRLSCAASGSTFGKYAMGWSRPAPGKERELVAAITVNAGRTYYADSVKGRFTISRDNAKNTVYLQMNSLKPEDTAVYYCNADFFTIYDYWGQGTQVTVSS | high polyreactivity |
| QVQLVESGGGLVQAGGSLRLSCAASGSTFGKYAMGWYRQAPGKERELVAAISKSGGSTYYADSVKGRFTISRDNAKNTVYLQMNSLKPEDTAVYYCAADVTYGTKWAYDYWGQGTQVTVSS | high polyreactivity |
| QVQLVESGGGLVQAGGSLRLSCAASGSTFGKYAMGWYRQAPGKERELVATISWSGTSTYYADSVKGRFTISRDNAKNTVYLQMNSLKPEDTAVYYCAADSEGVGVKHIYDYWGQGTQVTVSS | low polyreactivity |
| QVQLVESGGGLVQAGGSLRLSCAASGSTFGKYAMGWYRQATGKERELVAAITNGGRTNYADSVKGRFTISRDNAMNTVYLQMNSMKPEDTAVYYCNKARYGTDDYDYWGQGTQVTVSS | low polyreactivity |
| QVQLVESGGGLVQAGGSLRLSCAASGSTFGKYTMGWYRQAPGKERELVAAISWSGGNTYYADSVKGRFTISRDNAKNTVYLQMNSLKPEDTAVYYCAAEREAYNTWFDYWGQGTQVTVSS | high polyreactivity |
| QVQLVESGGGLVQAGGSLRLSCAASGSTFGLNAMGWYRQAHGKERDVVAAITRSDITNYADSVKGRFTISRDNAKNTVYLQMNSLKPEDTAVYYCNKTPDRHRRYFGYGYWGQGTQVTVSS | low polyreactivity |
| QVQLVESGGGLVQAGGSLRLSCAASGSTFGLNAMGWYRQAPGKERELVAAITWSGASTYYADSVKGRFTISRDNAKNTVYLQMNSLKPEDTAVYYCAKDIPTDYKDVNYWGQGTQVTVSS | low polyreactivity |
| QVQLVESGGGLVQAGGSLRLSCAASGSTFGLYAMGWYRQAPGKEREFVAAITASGGRTYYADSVKGRFTISRDHAKNTVYLQMNSLKPEDTAVYYCNSRTSHYDKYGYWGQGTQVTVSS | high polyreactivity |
| QVQLVESGGGLVQAGGSLRLSCAASGSTFGLYAMGWYRQAPRKERELVAVIRWGSGRTYYADSVKGRFTISRDNAKNTVYLQMNSLKPEDTAVYYCAKDRSYGSSSKRFGYWGQGTQVTVSS | high polyreactivity |
| QVQLVESGGGLVQAGGSLRLSCAASGSTFGLYAMGWYRQEPGKERELVAAITWRASSTYYADSVKGRFTISRDNAKNTVYLQMNSLKPEDTAVYYCAATWYSRFSRGDYDYWGQGTLVTVSS | high polyreactivity |
| QVQLVESGGGLVQAGGSLRLSCAASGSTFGLYTMGWYRQAPGKARELVAVINRSGGSTYYADSVKGRFTISRDNAKNTVYLQMNSLKPEDTAVYYCAAQRAVAGGRLDYWGQGTQVTVSS | high polyreactivity |
| QVQLVESGGGLVQAGGSLRLSCAASGSTFGNNAKGWYRQAPGKERELVAAITFRGTSTYADSVKGRFTISRDYAKNTVYLQMNSLKPEDTAVYYCAAVVYFVSYRFYYWGQGTQVTVSS | high polyreactivity |
| QVQLVESGGGLVQAGGSLRLSCAASGSTFGNNAMGWYRQAPGKERELVASINWNGGSTYYADSVKGRFTISRDNAKNTVYLQMNSLKPEDTAVYYCADDRVWAYWTYGYWGQGTQVTVSS | low polyreactivity |
| QVQLVESGGGLVQAGGSLRLSCAASGSTFGNYAMAWYRQAPGKERELVATISRSGGSTYYADSVKGRFTISRDNAKNTVYLLMNSLKPEDTAVYYCNRRYYTRKPDYNSWGQGTQVTVSS | high polyreactivity |
| QVQLVESGGGLVQAGGSLRLSCAASGSTFGNYDIGWYRQAPGKERELVAAISFSGGSTYYADSVKGRFTISRDNAKNTVYLQMNSLIPEDTAVYYCAARSNYRMDYWGQGTQVTVSS | high polyreactivity |
| QVQLVESGGGLVQAGGSLRLSCAASGSTFGPNAMGWYRQAPGKERELVAAITDSGVSTYYAVSVKGRFTISRDNAKYTVYLQMNSLKPEDTAVYYCATDWYLHRFDYWGQGTQVTVSS | low polyreactivity |
| QVQLVESGGGLVQAGGSLRLSCAASGSTFGPNAMGWYRQAPGKERELVATISSGGSTYYADSVKGRFTISRDNAKNTVYLQMNSLKPEDTAVYYCAVRTIIRPVDLYDYWGQGTQVTVSS | low polyreactivity |
| QVQLVESGGGLVQAGGSLRLSCAASGSTFGPNGMGWYRHAPGKERELVARIDRIGGGTYYADSVKGRFTISRDNANNTVYLQMNSLKPEDTAVYYCAAYGPSPFSQGYAKGDYWGQGTQVTVSS | low polyreactivity |
| QVQLVESGGGLVQAGGSLRLSCAASGSTFGPYAMGWYRQAPGKERELVAAIDKSGGSTYYADSVKGRFTISRDNAKNTVYLQMNSLKPEDTAVYYCAVEKRYPRRRYDYWGQGTQVTVSS | low polyreactivity |
| QVQLVESGGGLVQAGGSLRLSCAASGSTFGPYARGWSRQAPGKERELVSTITRNGGSTYYADSVKGRFTISRDNAKNTVYLQMNSLKPEDTAVYYCNAEGRWSSFTQRMDYWGQGTQVTVSS | low polyreactivity |

| Sequence | polyreactivity (PSR sort gate) |
| --- | --- |
| QVQLVESGGGLVQAGGSLRLSCAASGSTFGPYTMGWYRQAPGKERELVAAISYSGASTYYADSVKGRFTISRDNAKNTVYLQMNSLKPEDTAVYYCNTVYRYTRARYPYDYWGQGTQVTVSS | high polyreactivity |
| QVQLVESGGGLVQAGGSLRLSCAASGSTFGQYAMGWYRQAPGKERELVAAISSGGRTNYADSVKGRFTISRDNAKNTVYLQMNSLKPEDTAVYYCAARYYFPFRRFRRMDYWGQGTQVTVSS | high polyreactivity |
| QVQLVESGGGLVQAGGSLRLSCAASGSTFGQYAMGWYRQAPGKERELVATISSGSTYYADSVKGRFTISRDNAKNTVYLQMNSLKPEDTAVYYCAATRRWYKSKKTFYYWGQGTQVTVSS | high polyreactivity |
| QVQLVESGGGLVQAGGSLRLSCAASGSTFGRNAMGWYRQAPGKDRELVAAINSGGGTYYADSVKGRFTISRDNAKNTVYLQMNSLKPEDTAVYDCAAARGYGNYVYWGQGTQVTVSS | low polyreactivity |
| QVQLVESGGGLVQAGGSLRLSCAASGSTFGRNAMGWYRQAPGKERELVAAISWRSTPTYYADSVKGRFTISRDNAKNTVYLQMNSLKPEDTAVYYCAVYYYYPSTNGYHYDYWGHGTQVTVSS | high polyreactivity |
| QVQLVESGGGLVQAGGSLRLSCAASGSTFGRNAMGWYRQAPGKERELVASITSRGTSTYADSVKGRFTISRDNAKNTVYLQMNSLKPEDTAVYYCAAGVISYRRRSYYYWGQGTQVTVSS | high polyreactivity |
| QVQLVESGGGLVQAGGSLRLSCAASGSTFGRYAMGWSRQAPGKERELVAAITTSGRRTRYADSVKGRFTISRDNAKNTVYLQMNSLKPEDTAVYYCAASGAQGPDYDYWGQGTQVTVSS | low polyreactivity |
| QVQLVESGGGLVQAGGSLRLSCAASGSTFGRYAMGWYRQAPGKERELVAAITSGSSTNYADSVKGRFTISRDNAKNTVYLPMNSLKPEDTAVYYCAAPKSRQSTYYYWGQGTQVTVSS | high polyreactivity |
| QVQLVESGGGLVQAGGSLRLSCAASGSTFGRYTMGWYRQAPGKERQLVAAISSSGGGTYYADSVKGRLTISRDNAKNTVYLQMNSLKPEDTAVYYCAALGSRRYTRYGLTGFDYWGQGTQVTVSS | high polyreactivity |
| QVQLVESGGGLVQAGGSLRLSCAASGSTFGRYVMGLYRQAPGQERELVAAISKNAGSTYYADSVKGRFTISRDNAKNTVYLQMNSLKPEDTAVYYCAADWRTKGYDSLGQGTQVTVSS | high polyreactivity |
| QVQLVESGGGLVQAGGSLRLSCAASGSTFGRYVMGWYRQAPGKERELVAAISGSGGSTYYADSVKGRFTISRDNAKNTVYLQMNSLKPEDTAVYYCAARVAHYEYYWGQGTQVTVSS | high polyreactivity |
| QVQLVESGGGLVQAGGSLRLSCAASGSTFGRYVMGWYRQAPGKERELVAAISKNAGSTYYADSVKGRFTISRDNAKNTVYLQMNSLKPEDTAVYYCNAQSFREYGYWGQGTQVTVSS | high polyreactivity |
| QVQLVESGGGLVQAGGSLRLSCAASGSTFGSNALGWYREAPAKERELVAAIDANCGSTYYADSVKGRFTISRDNAKNTVYLQMHSQKQEDTAVYYCAAAGYCYYYVPNDYWGQGTQVTVSS | low polyreactivity |
| QVQLVESGGGLVQAGGSLRLSCAASGSTFGSNAMGGYRKAPGKERELVAAISTSGGSTYYADSVKGRFTISRDNAKNTVYLQMNSLKPEDTAVYYCNVDPAYSITYKGDYWGQGTQVSVSS | low polyreactivity |
| QVQLVESGGGLVQAGGSLRLSCAASGSTFGSNAMGWSRQAPGKERELVAAITYSGGRTYYADSVQGRFTISRDNAKNTVYLQMNSLKPEDPAVYYCAATFGFFYYQYDYWGQGTQVTVSS | low polyreactivity |
| QVQLVESGGGLVQAGGSLRLSCAASGSTFGSNAMGWYRQAPGKERELVAAIRGIVGSTYYADSVKGRFTISRDNAKNTVYLQMNSLKPEDTAVYYCNKAEVSTYYHTRSTYGGYDYWGQGTQVTVSS | low polyreactivity |
| QVQLVESGGGLVQAGGSLRLSCAASGSTFGSYAMGWHRQAPGKERELVASITYSGDSSNYSDSVKGRFTLSRDNAKNTVYLQMNSLKPEDTAVYYCKARAVMTQYIQKRYDYWGQGTQVTVSS | low polyreactivity |
| QVQLVESGGGLVQAGGSLRLSCAASGSTFGSYAMGWYIQAPGKERELVAAISRAGSTYADSVKGRFTISRDNAKNTVYLQMNSLKPEDTAVYYCAKRDNALYYGYDYWGQGTQVTVSS | low polyreactivity |
| QVQLVESGGGLVQAGGSLRLSCAASGSTFGSYAMGWYRQAPGGERELVAAISWNGGRTYYADSVKGRFTISRDNAKNTVYLQMNSLKPEDTAVYYCAKVVKYQSGGGLEYWGQGTQVTVSS | high polyreactivity |
| QVQLVESGGGLVQAGGSLRLSCAASGSTFGSYAMGWYRQAPGKERELVAAISYSGGSTYYADSVKGRFTISRDNAKNTVYLLMNSLKPEDTAVYYCATVRKYRAMDYWGQGTQVTVSS | high polyreactivity |
| QVQLVESGGGLVQAGGSLRLSCAASGSTFGSYAMGWYRQAPGKERELVAAITSSGGRTYYADSVKGRFTISRDNSKNTVYLQMNSLKPEDTAVYYCAARPRGGVFEYGYWGQGTQVTVSS | high polyreactivity |
